The values below come from paper PMC6697736, “A novel thermostable D-amino acid oxidase of the thermophilic fungus Rasamsonia emersonii strain YA” (Scientific Reports, 2019).

The target in series [1] is T1, ReDAAO (Rasamsonia emersonii, UniProt A0A499UB99).
T1 construct: gene DAO1; full-length, 368 aa, codon-optimised synthetic ORF in pET15b, His-tagged, E. coli BL21(DE3) pLysS; 42 kDa subunit, 185 kDa tetramer; noncovalent FAD
Put plainly: DNPH assay, […] D-Val as substrate. The conditions noted are these: read-out: % inhibition at 50 mM. In kind it is biochemical.

The target in series [2] is T1, ReDAAO. Description: absorption spectrum; TLC of flavin released by heat denaturation. In kind it is binding. The note with it: noncovalent; co-purified from E. coli; pH 8.0.
Substrate in series [3]: C[C@@H](N)C(=O)O
Description: purified protein. The note with it: apparent, 55 °C, 50 mM KPi pH 8.0, 0.02 mM FAD, O2 co-substrate.

Substrate in series [4]: CC(C)[C@@H](N)C(=O)O
Description: purified protein. In kind it is biochemical, Rasamsonia emersonii. The note with it: apparent, 55 °C, 50 mM KPi pH 8.0, 0.02 mM FAD, O2 co-substrate.

Substrate in series [5]: CSCC[C@@H](N)C(=O)O
Put plainly: purified protein. The series is classed as biochemical, Rasamsonia emersonii. The note with it: apparent, 55 °C, 50 mM KPi pH 8.0, 0.02 mM FAD, O2 co-substrate.

Substrate in series [6]: N=C(N)NCCC[C@@H](N)C(=O)O
Description: purified protein. The series is classed as biochemical, Rasamsonia emersonii. The conditions noted are these: apparent, 55 °C, 50 mM KPi pH 8.0, 0.02 mM FAD, O2 co-substrate.

Substrate in series [7]: N[C@H](CCC(=O)O)C(=O)O
Put plainly: purified protein. The series is classed as biochemical, Rasamsonia emersonii. The conditions noted are these: apparent, 55 °C, 50 mM KPi pH 8.0, 0.02 mM FAD, O2 co-substrate.

Usually inhibition stands for the drop in the measured response relative to a control, in per cent. In general, Km refers to the concentration of substrate that gives half-maximal velocity. One may read the kcat as the maximal rate divided by the concentration of active sites. The term kcat/Km denotes the turnover number divided by the Michaelis constant.

As for `O=C(O)C[C@@H](O)C(=O)O` [D-malate], at ReDAAO [1], the inhibition at 50000 µM turned out to be 17.2%.
On the same count and under the same terms, then `O=C(O)c1ccccc1` [benzoate], with 13.2%.
As to `Cc1cc2nc3c(=O)[nH]c(=O)nc-3n(C[C@H](O)[C@H](O)[C@H](O)COP(=O)(O)OP(=O)(O)OC[C@H]3O[C@@H](n4cnc5c(N)ncnc54)[C@H](O)[C@@H]3O)c2cc1C` [FAD], on ReDAAO [2], the “absorption spectrum; TLC of flavin released by heat denaturation” value is on record as “ReDAAO contains noncovalently bound FAD that functions as a cofactor”.
With `C/C=C/C(=O)O` [crotonate], on ReDAAO [1], the inhibition at 50000 µM stood at 22.6%.

B1: ReDAAO (Rasamsonia emersonii) (protein)
chain: MATNNIVVLGAGVSGLTTAWLLSKDPSNKITVAAKHMPGDYDIEYCSPWAGANYLPVGAENSRVGQWERATWPHLRDIAQNHPEAGIHFQDTVVYNRTKDQGSTTGQWFSELVKPNPWYGKVLPNFRELSKDELPPGIDNANRFTSVCINTAVYLPWLVGQCRKNGVVFKRAVFKHVAEAANAHHSGQKADLVVNCTGLSSRKLGGVQDNTLLPARGQIVVVRNDPGLMCSISGTDDGDDEVTYMMTRAAGGGTILGGTYQKHNWDSLPDPNLAVRIMKRCIELCPSLVAPGQGIEGLDIIRHGVGLRPVREDGPRIEKELIDGVWVVHNYGHGGYGYQTSFGCATTAVEVVREALQQQKQRRDKARL
notes: full-length, 368 aa, codon-optimised synthetic ORF in pET15b, His-tagged, E. coli BL21(DE3) pLysS; 42 kDa subunit, 185 kDa tetramer; noncovalent FAD
As to B1, the Km in “purified protein [3]” came to 2700 ± 300 µM; in the series “purified protein [4]” it was 628 ± 40 µM; in “purified protein [5]” it was 213 ± 30 µM; in “purified protein [6]”, 19200 ± 4300 µM; in “purified protein [7]” it was 12100 ± 2900 µM. The kcat in the series “purified protein [3]” was 189 s⁻¹; in the series “purified protein [4]” it was 225 ± 2.4 s⁻¹; in the series “purified protein [5]” it was 120 ± 3.1 s⁻¹; in the series “purified protein [6]”, 45.6 ± 4.5 s⁻¹; in “purified protein [7]” it was 90.7 ± 6.6 s⁻¹. Further, the catalytic efficiency (kcat/Km) in “purified protein [3]” was 69900 M⁻¹ s⁻¹; in “purified protein [4]”, 358000 M⁻¹ s⁻¹; in “purified protein [5]”, 562000 M⁻¹ s⁻¹; in “purified protein [6]” it was 2380 M⁻¹ s⁻¹; in the series “purified protein [7]”, 7490 M⁻¹ s⁻¹.
